Assay results taken from the supplement of paper PMC9170038.

Tested on: MS2 coat protein
Test: apparent KD of MS2 coat protein; designed switch direction (-1 OFF switch, 1 ON switch): -1; higher = weaker reporter binding
Method in brief: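 For each design, the apparent KD is the median over clusters of curves fitted to normalised cluster fluorescence. Clusters held RNA switches with common flanks, transcribed on Illumina chips by stalled E. coli RNA polymerase. These were titrated with SNAP-549-labelled MS2 coat protein, doubling from 0.7 or 1.5 nM to 3 µM, without input, with 200 uM small-molecule ligand, or with an oligonucleotide input.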

[1] = Eterna round: R95, input ligand: FMN 200 uM
[2] = Eterna round: R95, input ligand: microRNA oligo, concentration not stated
[3] = Eterna round: R95, input ligand: none
[4] = input ligand: microRNA oligo, concentration not stated

| Sequence | apparent KD of MS2 coat protein [1] [nM] | apparent KD of MS2 coat protein [2] [nM] | apparent KD of MS2 coat protein [3] [nM] | apparent KD of MS2 coat protein (input ligand: FMN 200 uM) [nM] | apparent KD of MS2 coat protein (input ligand: none) [nM] | apparent KD of MS2 coat protein [4] [nM] |
| --- | --- | --- | --- | --- | --- | --- |
| AAAAAACAAGGAUAUACAAAAAAAAAAAGUGAAAAAAAACCACAUGAGGAUCACCCAUGUAGAAGGUGUAAAAA [JR_Exclusion2_Sub002] (puzzle: Exclusion 2) | 21.9 | 37.1 | 51.1 |  |  |  |
| AAAACACAUGAGGAUCACCCAUGUGAGGAUAUGUUCAUGUUCAGCAAACUGAACAUGAACAGAAGGCACAUAAA [JR_Exclusion1_Sub016] (puzzle: Exclusion 1) | 44.7 | 36.5 | 40.4 |  |  |  |
| AAAACACAUGAGGAUCACCCAUGUGAGGAUAUGUUGAUUUUGAUCAAAGUUAAGAUUAACAGAAGGCACAUAAA [JR_Exclusion1_Sub018] (puzzle: Exclusion 1) | 34.5 | 36.1 | 35.2 |  |  |  |
| AAAACGGCAGGAUAUCGGAACAAUGACAUGAGGAUCACCCAUGUGAUCGUUUCACUUGGCCGAGAAGGGCCAAAAU [Xeinbelele] (puzzle: Exclusion 5) | 54.6 | 18.6 | 17.4 |  |  |  |
| AAAACGUGAGGAUAUCCAAUAUAUGACAUGAGGAUCACCCAUGUUUCCACUCGUACCUCCGGAGAAGGCACAAUUA [Ex5 #77] (Eterna round: R97, puzzle: Exclusion 5) |  |  |  | 46.4 | 43 |  |
| AAAAGAACGGCAGGAUAUGCAAGCACUGACCUCCCAAAAUAAAGAAACAUGAGGAUCACCCAUGUGCAGAAGGGCCAAAAGUGC [Vediusin] (Eterna round: R96, puzzle: Exclusion NG 2) |  |  |  |  |  | 10.4 |
| AAAAGCAAGCAAAGAUUCUACAUGAGGAUCACCCAUGUGCUCGUCUUAUAAAGUACUAUCACGAAAGUGAUAGUACA [Sensor 3, v1 - 42] (puzzle: Sensor v3, turn-off variant 1) | 26 | 142 | 19.7 |  |  |  |
| AAAAUAAACCUCAUUUAAAACAUGAGGAUCACCCAUGUAAAAUGCUCGUCUUAUUAAAUGUACUCCUAGUUCGUACA [My solution] (Eterna round: R97, puzzle: Sensor, turn-off variant 1) |  |  |  | 178 | 251 |  |
| AAAAUGCAAGGAUAUACAUAGAUCCGACCUACUUAAAACAAACAUGAGGAUCACCCAUGUAGAAGGUGCCAAAA [Raxerebiti] (puzzle: Exclusion 2) | 44.9 | 23.7 | 25.5 |  |  |  |
| AAACAACAUGAGGAUCACCCAUGUAAGGAUAUGCGAGUUGGGUCAACGAAGGUUGAAGGCAGAAGGUAUAGGGU [Erxevees] (puzzle: Exclusion 1) |  | 49.3 |  |  |  |  |
| AAACAAGAAGGAUAUACAUUAUCGGAUCUUCCGGCAAUGCCACAUGAGGAUCACCCAUGUAGAAGGUCUAAAUU [Ralabi] (puzzle: Exclusion 2) |  | 12.3 |  |  |  |  |
| AAACACACAGGAUAUGAGAGGCGGUACAUGAGGAUCACCCAUGUCCUCGGAAAUCAGCGUUCAGAAGGGUGCGGUG [Eternabot (Original) Solution 36] (Eterna round: R97, puzzle: Exclusion 5) |  |  |  | 457 | 171 |  |
| AAACACUGAGGAUAUGCGUAACAACAAAGCCUCACGUGCCAACAUGAGGAUCACCCAUGUAGAAGGCAGUCCAA [Mod R3 Insanara 17 - Jieux - Exclusion 2] (Eterna round: R97, puzzle: Exclusion 2) |  |  |  | 25.2 | 25.1 |  |
| AAACCACAUGAGGAUCACCCAUGUGAGGAUAUGAUACUAUGUACUUCGGUACAUAGUAUCAGAAGGCAUGUGGA [Ex1-3: 88] (puzzle: Exclusion 1) |  | 168 |  |  |  |  |
| AAACCCUGAGGAUAUACAUAACAACAAAGCCUCACGUGCCAACAUGAGGAUCACCCAUGUAGAAGGCAGGCCAA [Isananra] (puzzle: Exclusion 2) |  | 12.6 |  |  |  |  |
| AAACGGCGGACCGUGGCUUUUUGCUCGUCUUGUGCUUCGACAUGAGGAUCACCCAUGUGGUGGUGGUCCGUUGUAAA [Grok-var2-15 mod JAL] (puzzle: Sensor v3, turn-off variant 2) | 48.3 | 40.3 | 80.3 |  |  |  |

| Sequence | apparent KD of MS2 coat protein [1] [nM] | apparent KD of MS2 coat protein [2] [nM] | apparent KD of MS2 coat protein [3] [nM] | apparent KD of MS2 coat protein (input ligand: FMN 200 uM) [nM] | apparent KD of MS2 coat protein (input ligand: none) [nM] | apparent KD of MS2 coat protein [4] [nM] |
| --- | --- | --- | --- | --- | --- | --- |
| AAACGGCGGAUCGUGGCUUUUUGCUCGUCUUGUGCUUCGACAUGAGGAUCACCCAUGUGGUGGUGAUCCGUUGUAAA [Grok-var2-16 mod JAL] (Eterna round: R96, puzzle: Sensor v3, turn-off variant 2) |  |  |  | 537 | 84 | 12.4 |
| AAACGGCGGAUCGUGGCUUUUUGCUCGUCUUGUGCUUCGACAUGAGGAUCACCCAUGUGGUGGUGAUCCGUUGUAAA [Grok-var2-16 mod JAL] (puzzle: Sensor v3, turn-off variant 2) | 58.6 | 15.8 | 83.5 |  |  |  |
| AAACUGAGGCAAAGCUUUAGUCGUACAUGAGGAUCACCCAUGUAGGAUAUGGUAGGCUUUGCUUACCAGAAGGACAGAGUGAUC [Mat - Exclusion NG 3 - Mod of JL - D56] (Eterna round: R96, puzzle: Exclusion NG 3) |  |  |  | 235 | 110 | 103 |
| AAACUGCAUGUGAGGAUAUGCACCGGCUAAACCGGGCAGAAGGCACAUGAGGAUCACCCAUGUCAUCCUAUUGC [Esleisus] (puzzle: Brourd's mod of Exclusion 4) |  | 9.01 |  |  |  |  |
| AAAGAAGAGAGAAAACAACACAUGAGGAUCACCCAUGUGAGAAGAUGAGGGUGAUACAGGCUAUAUGCUCGUCUUAU (puzzle: Sensor v3, turn-off variant 1) | 55 | 281 | 52.4 |  |  |  |
| AAAGCUGCAGGAUAUGCAUGUGUGGACAUGAGGAUCACCCAUGUGAGCGUAUCAUGUCGAGCAGAAGGGCAGUAAA [Atquer] (Eterna round: R97, puzzle: Exclusion 5) |  |  |  | 172 | 630 |  |
| AAAGUAGACCUUGAAGCAUCGUAAACAUGAGGAUCACCCAUGUAGGAUAUGGGUAGCUAUGCUAGCCAGAAGGAUGUGUGGUGA [Eternabot solution 16] (Eterna round: R96, puzzle: Exclusion NG 3) |  |  |  | 335 | 54.4 | 39 |
| AAAUAACAAGCAAUAAACCACAUGAGGAUCACCCAUGUAAAGGGUGAAUCGUCCACCCAAAAAAAAAAAAAAAAAUA [Mat - Sensor v2 - Eli mod - 147] (Eterna round: R96, puzzle: Sensor v2, turn-off variant) |  |  |  | 43.3 | 52.3 | 178 |
| AAAUAAUAGAUAAAAUAAAACAUGAGGAUCACCCAUGUGGGAAGAUGAGGGUGAAACAAGCUUUUUGCUCGUCUUAU (puzzle: Sensor v3, turn-off variant 1) | 37.8 | 754 | 46.7 |  |  |  |
| AAAUAAUAGAUAAAAUAAAACAUGAGGAUCACCCAUGUGGGAUGUUGAGGGUGAAACAAGCUUUUUGCUCGUCUUAU (puzzle: Sensor v3, turn-off variant 1) | 105 | 502 | 139 |  |  |  |
| AAAUACAAGUAAGGAUUCUACAUGAGGAUCACCCAUGUGCUCGUCUUAUAAAGUACUAUCACGAAAGUGAUAGUACA [Sensor 3, v1 - 38] (puzzle: Sensor v3, turn-off variant 1) | 22 | 190 | 26.2 |  |  |  |
| AAAUACCGGUGAGGAUAUUUAUAAUAGAACUUUAUGAUAUACAUGAGGAUCACCCAUGUUACUUUAAAGAAGGCAUCGGAUAAA [Mat - Exclusion NG 2 - Mod of JL - D89] (Eterna round: R96, puzzle: Exclusion NG 2) |  |  |  |  |  | 13.9 |
| AAAUAGCAUGAGGAUAUUGGACUGGAUUCAGUGCGAGAAGGCAUGACAUGAGGAUCACCCAUGUUGUGUUGGGA [EX6 #9] (Eterna round: R97, puzzle: Exclusion 6) |  |  |  | 42.6 | 17 |  |
| AAAUAGCUAGAGGAUAUCGGAUAGGAUUUAUUACGAGAAGGUUAGACAUGAGGAUCACCCAUGUUCUGUUGGGA [EX6 #21] (Eterna round: R97, puzzle: Exclusion 6) |  |  |  | 86.9 | 34.6 |  |
| AAAUAGUGAGGAUAUUAGUUGUACGUCAAUAGACGUAUAAGUGAGAAGGCACAUGAGGAUCACCCAUGUUCCAG [Omei Ex4 Mod of Mat's R95 mod of Omei v9] (Eterna round: R97, puzzle: Exclusion 4) |  |  |  | 48.4 | 22.2 |  |
